± gives the standard deviation of the averaged measurements.
B1: library; a variant is named by its letters at N, in order (parent)
chain: GCUGUCACCGGUGUAUUACCCUAGUGGUCGACCGGUCUGAUGAGUCUNNNNNNAGACGAAACAGC

How the values were obtained:
hypoxanthine [1] = variants of: B1; experiment: FACS-Seq fitted mean relative fluorescence mCherry/BFP without ligand (log10 relative fluorescence); ligand: hypoxanthine (xanthine aptamer); higher = higher reporter protein expression; conditions: HEK293T, ligand present: no
In short: (§1)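 After lentiviral transduction, HEK293T library cells bearing an mCherry ribozyme-switch reporter and an EF1α-BFP marker were enriched. They were then held for 48 h with or without ligand and sorted by mCherry/BFP into 6 bins, and each bin's genomic DNA was PCR-amplified, barcoded and MiSeq-sequenced. Fluorescence is expressed as a normalized fitted mean: the normal mean of log10(mCherry/BFP) bin counts, scaled to five spiked-in control ribozymes.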

hypoxanthine [2] = variants of: B1; experiment: normalized RNA/DNA level with ligand (relative to sTRSVctl = 100) (log10 (% of sTRSVctl)); ligand: hypoxanthine (xanthine aptamer); higher = less ribozyme self-cleavage, higher mRNA level; conditions: ligand concentration (+) RNA-Seq: 5 mM, HEK293T, reporter: mCherry (pCS4076), ligand present: yes
In short: (§2)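 For each 6-well well, 4 µg of library plasmid encoding mCherry-linked ribozyme switches, or eGFP-linked ones in some ligand experiments, was transfected into HEK293T. Any ligand was added 1 h before transfection, and RNA was extracted with EDTA 72 h after it, then reverse-transcribed, amplified, barcoded and sequenced. RNA level was obtained by dividing RNA reads by DNA reads, normalizing to a spiked-in non-cleaving sequence or to the top sequences, then scaling and log-transforming. The top set was 25 sequences, scaling was ×100 with log10, and ≥100 DNA reads were required.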

hypoxanthine [3] = variants of: B1; experiment: normalized RNA/DNA level without ligand (relative to sTRSVctl = 100) (log10 (% of sTRSVctl)); ligand: hypoxanthine (xanthine aptamer); higher = less ribozyme self-cleavage, higher mRNA level; conditions: HEK293T, reporter: mCherry (pCS4076), ligand present: no
In short: as §2

hypoxanthine [4] = variants of: B1; experiment: FACS-Seq fitted mean relative fluorescence mCherry/BFP with ligand (log10 relative fluorescence); ligand: hypoxanthine (xanthine aptamer); ligand concentration (+) FACS-Seq: 5 mM; higher = higher reporter protein expression; conditions: HEK293T, ligand present: yes
In short: as §1

| Variant | FACS-Seq fitted mean (log10) (hypoxanthine [1]) | normalized RNA/DNA level with ligand (log10) (hypoxanthine [2]) | normalized RNA/DNA level without ligand (log10) (hypoxanthine [3]) | FACS-Seq fitted mean (log10) (hypoxanthine [4]) |
| --- | --- | --- | --- | --- |
| AGAACG | 0.48 ± 0.04 | 1.833 ± 0.015 | 1.436 ± 0.0026 | 0.756 ± 0.08 |
| AGAACC | 0.228 ± 0.048 | 1.937 ± 0.014 | 1.87 ± 0.022 | 0.264 ± 0.055 |
| GCUACG | 0.064 ± 0.029 | 1.95 ± 0.078 | 1.517 ± 0.015 | 0.42 ± 0.0069 |
| GCUACC | 0.407 ± 0.037 | 1.91 ± 0.07 | 1.76 ± 0.024 | 0.599 ± 0.028 |
| AGACCC | 0.552 ± 0.035 | 1.94 ± 0.0097 | 1.92 ± 0.02 | 0.516 ± 0.11 |
| GGAACG | 0.254 ± 0.083 | 1.88 ± 0.072 | 1.503 ± 0.015 | 0.597 ± 0.098 |
| CCUGCG | -0.205 ± 0.019 | 1.98 ± 0.015 | 1.86 ± 0.0037 | -0.2206 ± 0.00099 |
| GCGUUG | 0.142 ± 0.042 | 1.78 ± 0.034 | 1.3 ± 0.027 | 0.658 ± 0.021 |
| ACUCUG | 0.335 ± 0.0076 | 1.89 ± 0.054 | 1.516 ± 0.0021 | 0.677 ± 0.02 |
| ACUCUU | 0.342 ± 0.07 | 1.95 ± 0.029 | 1.84 ± 0.056 | 0.517 ± 0.056 |
| ACUCUA | 0.438 ± 0.061 | 1.947 ± 0.0039 | 1.86 ± 0.055 | 0.585 ± 0.062 |
| ACUCGG | 0.949 ± 0.075 | 1.87 ± 0.042 | 1.44 ± 0.12 | 0.651 ± 0.2 |
| ACUCGA | 0.714 ± 0.029 | 1.958 ± 0.017 | 1.74 ± 0.043 | 0.665 ± 0.029 |
| UCUCUA | 0.399 ± 0.023 | 1.94 ± 0.058 | 1.743 ± 0.0054 | 0.493 ± 0.055 |
| UCUCUG | 0.0437 ± 0.023 | 1.77 ± 0.022 | 1.3 ± 0.032 | 0.522 ± 0.028 |
| GCUGGC | 0.495 ± 0.075 | 1.85 ± 0.12 | 1.78 ± 0.038 | 0.468 ± 0.018 |
| GCUGGG | 0.121 ± 0.13 | 1.94 ± 0.0053 | 1.55 ± 0.083 | 0.547 ± 0.091 |
| UCUUGA | 0.296 ± 0.011 | 1.94 ± 0.035 | 1.51 ± 0.036 | 0.572 ± 0.0065 |

| Variant | FACS-Seq fitted mean (log10) (hypoxanthine [1]) | normalized RNA/DNA level with ligand (log10) (hypoxanthine [2]) | normalized RNA/DNA level without ligand (log10) (hypoxanthine [3]) | FACS-Seq fitted mean (log10) (hypoxanthine [4]) |
| --- | --- | --- | --- | --- |
| GGAAUG | -0.159 ± 0.068 | 1.842 ± 0.0069 | 1.34 ± 0.03 | -0.507 ± 0.2 |
| GGAAUA | 0.68 ± 0.044 | 1.9527 ± 0.00026 | 1.78 ± 0.028 | 0.588 ± 0.045 |
| GGAAUU | 0.904 ± 0.078 | 1.955 ± 0.011 | 1.89 ± 0.045 | 0.815 ± 0.039 |
| UGACUC | 0.621 ± 0.043 | 2.01 ± 0.036 | 1.97 ± 0.033 | 0.678 ± 0.044 |
| UGACUA | 0.629 ± 0.091 | 1.953 ± 0.017 | 1.86 ± 0.029 | 0.141 ± 0.079 |
| CGACGC | -0.246 ± 0.0073 | 1.919 ± 0.0071 | 1.87 ± 0.019 | -0.157 ± 0.067 |
| CGACGG | 0.267 ± 0.083 | 1.83 ± 0.035 | 1.413 ± 0.0057 | 0.596 ± 0.078 |
| AGAGAA | 0.479 ± 0.04 | 1.882 ± 0.0051 | 1.69 ± 0.047 | 0.467 ± 0.0095 |
| CCUUGC | 0.165 ± 0.04 | 1.95 ± 0.082 | 1.86 ± 0.027 | -0.0481 ± 0.064 |
| UCUUUA | 0.261 ± 0.0068 | 1.958 ± 0.004 | 1.9 ± 0.085 | 0.327 ± 0.02 |
| GCUGAU | 0.294 ± 0.021 | 1.97 ± 0.029 | 1.776 ± 0.014 | 0.376 ± 0.054 |
| GCUGAA | 0.332 ± 0.011 | 1.91 ± 0.032 | 1.76 ± 0.038 | 0.43 ± 0.092 |
| ACUGGA | 0.309 ± 0.0042 | 1.952 ± 0.017 | 1.71 ± 0.03 | 0.587 ± 0.064 |
| ACUGGU | 0.0934 ± 0.044 | 1.926 ± 0.0036 | 1.65 ± 0.06 | 0.1 ± 0.11 |
| CCUAUA | 0.827 ± 0.019 | 1.945 ± 0.016 | 1.83 ± 0.029 | 0.508 ± 0.074 |
| CCUCGA | 0.268 ± 0.026 | 2 ± 0.011 | 1.87 ± 0.044 | 0.314 ± 0.059 |
| UCUGAA | 0.338 ± 0.025 | 1.951 ± 0.0066 | 1.68 ± 0.04 | 0.512 ± 0.022 |
| AGAAGG | 0.227 ± 0.0085 | 1.85 ± 0.051 | 1.42 ± 0.044 | 0.463 ± 0.011 |

— the supplement of paper PMC6757056
